From patent WO2005044853A2 (dated 2005)

T1: murine VEGF-D (mouse, UniProt P97946 98-206, limits assumed)
T1 construct: also called mVEGF-D
T1 sequence (looked up): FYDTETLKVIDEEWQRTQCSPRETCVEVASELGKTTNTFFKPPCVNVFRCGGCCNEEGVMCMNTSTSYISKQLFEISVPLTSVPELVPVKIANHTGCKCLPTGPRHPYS

T2: human placenta growth factor (PlGF-2) (human, UniProt P49763-3 19-170, limits assumed)
T2 construct: also called human P1GF-2
T2 sequence (looked up): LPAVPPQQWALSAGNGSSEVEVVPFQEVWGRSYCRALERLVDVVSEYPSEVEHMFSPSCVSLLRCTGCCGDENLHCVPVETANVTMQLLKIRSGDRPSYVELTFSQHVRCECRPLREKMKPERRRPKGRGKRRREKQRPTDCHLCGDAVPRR

T3: mouse placenta growth factor (PlGF-2) (mouse, UniProt P49764 24-158, limits assumed)
T3 construct: also called murine P1GF-2
T3 sequence (looked up): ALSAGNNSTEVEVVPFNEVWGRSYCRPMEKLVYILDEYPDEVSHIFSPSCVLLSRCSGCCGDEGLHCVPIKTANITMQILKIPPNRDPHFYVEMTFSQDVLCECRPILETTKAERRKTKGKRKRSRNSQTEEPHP

T4: human VEGF-B (human, UniProt P49765-2 22-188, limits assumed)
T4 sequence (looked up): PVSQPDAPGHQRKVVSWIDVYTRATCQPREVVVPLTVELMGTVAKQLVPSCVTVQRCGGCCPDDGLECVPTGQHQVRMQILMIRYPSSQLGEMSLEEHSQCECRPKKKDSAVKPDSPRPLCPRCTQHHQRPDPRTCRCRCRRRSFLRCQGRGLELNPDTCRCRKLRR

B1: G6 Fab (Fab, V domains shown)
VH: EVQLVESGGGLVQPGGSLRLSCAASGFTISDYWIHWVRQAPGKGLEWVAGITPAGGYTYYADSVKGRFTISADTSKNTAYLQMNSLRAEDTAVYYCARFVFFLPYAMDYWGQGTLVTVSS
VL: DIQMTQSPSSLSASVGDRVTITCRASQDVSTAVAWYQQKPGKAPKLLIYSASFLYSGVPSRFSGSGSGTDFTLTISSLQPEDFATYYCQQSYTTPPTFGQGTKVEIKR
notes: also called G6 antibody; G6 clone

Key:
[1] = target: murine VEGF (mouse) (UniProt Q00731); assay: 25C; given as unpublished results
[2] = target: murine VEGF (mouse) (UniProt Q00731); assay: BIAcore or solution binding ELISA, Fab, measured as control in the same assays
[3] = target: T1, murine VEGF-D; assay: direct ELISA on homolog-coated wells (2ug/ml), increasing G6 Fab
[4] = target: T2, human placenta growth factor (PlGF-2); assay: as above
[5] = target: T3, mouse placenta growth factor (PlGF-2); assay: as above
[6] = target: T4, human VEGF-B; assay: as above

murine VEGF (mouse), sequence (Q00731 other isoform, or with tags, fused parts or gaps limits assumed): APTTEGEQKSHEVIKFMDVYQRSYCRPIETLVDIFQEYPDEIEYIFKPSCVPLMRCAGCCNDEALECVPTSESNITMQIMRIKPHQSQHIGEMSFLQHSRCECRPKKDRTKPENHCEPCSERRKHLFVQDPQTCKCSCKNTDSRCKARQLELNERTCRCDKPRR

Molecule	Kd [1]	affinity [2]	binding result [3]	binding result [4]	binding result [5]	binding result [6]
Y0317 Fab	300 nM	350 nM				
B1			no binding	no binding	no binding	no binding
